From patent publication US20040259770A1, “Method for determining leukocyte activation” (Rush University Medical Center, priority 2003, published 2004)
Like-named read-outs stand apart in the source and are kept apart here.

What was measured:
eosinophils [1] = assay: Flow cytometric analysis of binding of lactoferrin by eosinophils; design: species or system human
Procedure: Eosinophils (10^6 cells) were incubated with or without the indicated concentrations of lactoferrin in 100 microliters of HEPES-HBSS-HSA buffer for 90 minutes at 4° C. The cells were collected by centrifugation at 300 g for 5 minutes at 4° C., and then incubated with 1.5 micrograms FITC-conjugated polyclonal anti-lactoferrin (Sigma Chemical Co.) or FITC-conjugated rabbit IgG (Sigma Chemical Co.) in 25 microliters PBS (pH 7.2) containing 0.1 percent gelatin and 0.1 percent azide (PBS-gel-azide) for 30 minutes on ice. The cells were washed twice in ice-cold PBS-gel-azide and were suspended in PBS-gel-azide buffer containing 1 percent formaldehyde for analysis by flow cytometry. Fluorescence intensity of 10,000 cells in each sample was measured using a FACScan flow cytometer (Becton-Dickinson; San Jose, Calif.).

[2] = tested on: lactoferrin receptor on neutrophils; settings: Boxer et al. 1982, cited from earlier work
eosinophils [3] = assay: Eosinophil superoxide production (cytochrome c reduction) in protein-coated tissue culture wells; type: cell-based, human; settings: 1 to 100 micrograms per milliliter of the protein, 2 hours at 37° C
Procedure: Neutrophils were isolated from venous blood of healthy adult volunteers by density gradient centrifugation through lymphocyte separation medium (BioWhittaker; Walkersville, Md.) as described previously (Haskell M. D., et al., Blood 86:4627-4637 (1995)) with one modification. Isotonicity was restored following the brief hypotonic lysis steps by the addition of 2× concentrated Hank's Balanced Salt Solution (HBSS) (Gibco; Grand Island, N.Y.) (without Ca^2+ and Mg^2+) containing 5 mM HEPES, pH 7.4. The cells were suspended in HEPES (10 mM)-buffered HBSS (with Ca^2+ and Mg^2+), pH 7.4, containing 1 milligram per milliliter of human serum albumin (HSA) (Sigma Chemical Co.) (HEPES-HBSS-HSA buffer). Neutrophil purity was routinely greater than 95 percent, with eosinophils representing the remainder of the cells. Eosinophils were isolated from the neutrophil preparations by negative selection (Hansel T. T., et al., J. Immunol. Meth. 145:105-10 (1991)) using anti-CD16 immunomagnetic beads as described by the manufacturer (Miltenyi Biotec, Inc., Auburn, Calif.). The eosinophils were suspended in HEPES-HBSS-HSA buffer. Eosinophil purity was routinely greater than 95 percent as determined by counting Wright-stained cytospin preparations. In some assays, an aliquot of the neutrophil preparation was held on ice for later use.
Superoxide production was measured essentially as described elsewhere (Motegi, Y., and H. Kita, J. Immunol. 161:4340 (1998)). Briefly, wells in a 96-well (flat bottom) tissue culture plate (Corning, Inc.; Corning, N.Y.) were coated with human milk lactoferrin (Sigma Chemical Co.) or human secretory IgA (ICN Biomedical; Aurora, Ohio) by incubation with 50 microliters of the indicated concentrations of the proteins in phosphate buffered saline (PBS) overnight at 4° C. Non-specific protein binding sites were blocked by subsequent incubation with 100 microliters of 25 milligrams per milliliter of HSA in PBS for 2 hours at 37° C., and the tissue culture wells were washed twice with PBS before use. Aliquots (5×10^4 cells) of eosinophils or neutrophils were added to the wells and were incubated in HEPES-HBSS—HSA buffer containing 50 micromolar cytochrome c (Sigma Chemical Co.) for 120 minutes at 37° C. in a Ceres UV900HDi microplate reader (Bio-Tek Instruments, Inc., Winooski, Vt.). Total incubation volume was 0.2 milliliters. Absorbance at 550 nanometers was recorded at 15-minute intervals, and superoxide production was calculated as described previously (Motegi, Y., and H. Kita, J. Immunol. 161:4340 (1998)). Results are expressed as nanomoles superoxide per 10^5 cells after subtraction of spontaneous production, which was measured in tissue culture wells coated only with HSA. GM-CSF (R & D Systems; Minneapolis, Minn.), porcine heparin (Sigma Chemical Co.), or chondroitin sulfate C (Sigma Chemical Co.) was added to the incubation mixtures in some assays as indicated.

[4] = target: lactoferrin receptors on eosinophils; assay: Binding of 125I-labeled lactoferrin by eosinophils, Scatchard analysis; design: species or system human; settings: three experiments, 2 hours at room temperature
Procedure: Lactoferrin (100 micrograms) was radioiodinated using IODO-GEN iodination reagent (Pierce; Rockford, Ill.) according to the procedure supplied by the manufacturer. The lactoferrin was incubated with 400 micro Curies Na^125I (PerkinElmer Life Sciences; Boston, Mass.) for 3 min, and the ^125I-labeled lactoferrin was separated from free Na^125I by chromatography through a 5-ml D-Salt dextran desalting column (Pierce) using PBS as the elution buffer. Protein concentration of the ^125I-labeled lactoferrin was measured by the BCA assay (Pierce). Specific activity of the ^125I-labeled lactoferrin was 34,800 cpm/pmole. […] Binding of ^125I-labeled lactoferrin by eosinophils was determined using a modification of previously described protocols for eosinophils. Motegi et al. J. Immunol. 161:4340 (1998); Lopez et al., J. Biol. Chem. 266:24741 (1991). Eosinophils (2×10^6) were incubated with the indicated concentrations of ^125I-labeled lactoferrin alone and in the presence of excess unlabeled lactoferrin in RPMI 1640 containing 20 mM HEPES, 0.5% BSA, and 0.1% sodium azide (Lopez et al., J. Biol. Chem. 266:24741 (1991)) in siliconized glass tubes for 2 hr at room temperature on a circular oscillating platform. In some experiments as indicated, binding was measured in the presence of excess unlabeled transferrin. Total reaction volume was 0.15 ml. Reactions were stopped by centrifugation (1300 g for 4 min) of the reaction mixture through 200 microliters FCS in a 1.5 ml microcentrifuge tube. The supernatant was removed by careful aspiration, and after quick-freezing on dry ice the tip of the tube containing the cell pellet was excised and the radioactivity was measured by gamma counting (Beckman Coulter Gamma 5500B). Specific binding was determined as the difference between total binding and binding in the presence of the excess unlabeled lactoferrin. Binding constants were determined by Scatchard analysis (Scatchard, G., Ann. N.Y. Acad. Sci. 51:660 (1949)).

B1: lactoferrin: 78-80 kilodalton multifunctional glycoprotein of external secretions and neutrophil secondary granules (protein, UniProt P02788 20-710, looked up)
Lactotransferrin: GRRRSVQWCAVSQPEATKCFQWQRNMRKVRGPPVSCIKRDSPIQCIQAIAENRADAVTLDGGFIYEAGLAPYKLRPVAAEVYGTERQPRTHYYAVAVVKKGGSFQLNELQGLKSCHTGLRRTAGWNVPIGTLRPFLNWTGPPEPIEAAVARFFSASCVPGADKGQFPNLCRLCAGTGENKCAFSSQEPYFSYSGAFKCLRDGAGDVAFIRESTVFEDLSDEAERDEYELLCPDNTRKPVDKFKDCHLARVPSHAVVARSVNGKEDAIWNLLRQAQEKFGKDKSPKFQLFGSPSGQKDLLFKDSAIGFSRVPPRIDSGLYLGSGYFTAIQNLRKSEEEVAARRARVVWCAVGEQELRKCNQWSGLSEGSVTCSSASTTEDCIALVLKGEADAMSLDGGYVYTAGKCGLVPVLAENYKSQQSSDPDPNCVDRPVEGYLAVAVVRRSDTSLTWNSVKGKKSCHTAVDRTAGWNIPMGLLFNQTGSCKFDEYFSQSCAPGSDPRSNLCALCIGDEQGENKCVPNSNERYYGYTGAFRCLAENAGDVAFVKDVTVLQNTDGNNNEAWAKDLKLADFALLCLDGKRKPVTEARSCHLAMAPNHAVVSRMDKVERLKQVLLHQQAKFGRNGSDCPDKFCLFQSETKNLLFNDNTECLARLHGKTTYEKYLGPQYVAGITNLKKCSTSPLLEACEFLRK
Eosinophils [1]; 30 micrograms per milliliter soluble lactoferrin, 90 minutes at 4° C
  fluorescence intensity with FITC-conjugated anti-lactoferrin antibody: marked increase in the fluorescence intensity
Eosinophils [1]; 100 micrograms per milliliter lactoferrin
  fluorescence intensity with FITC-conjugated anti-lactoferrin antibody: did not produce any further increase in the level of fluorescence intensity
Eosinophils [1]; flow cytometry analysis, approximately 0.4 micromolar
  lactoferrin concentration at which binding by eosinophils is saturated: 30 micrograms per milliliter
[2]; read-out: dissociation constant of lactoferrin receptor described for neutrophils
  Kd: ~200 nM
[2]; read-out: dissociation constant of lactoferrin receptor described on neutrophils
  Kd: ~200 nM

B2: soluble lactoferrin: human milk lactoferrin added in solution to HSA-coated wells (protein, UniProt P02788 20-710, looked up)
Lactotransferrin: B1 Lactotransferrin
Eosinophils [3]
  stimulation of eosinophil superoxide production (in words): stimulated minimal superoxide production

B3: mock-deglycosylated lactoferrin: lactoferrin given the same treatment as deglycosylated lactoferrin but in the absence of PNGase F (protein, UniProt P02788 20-710, looked up)
Lactotransferrin: B1 Lactotransferrin
modifications: mock-deglycosylated
Eosinophils [3]
  stimulation of eosinophil superoxide production (in words): did not differ from that of control lactoferrin

B4: ^125I-labeled lactoferrin: lactoferrin radioiodinated with IODO-GEN reagent, 34,800 cpm/pmole (protein, UniProt P02788 20-710, looked up)
Lactotransferrin: B1 Lactotransferrin
modifications: 125I label
notes: lactoferrin radioiodinated with IODO-GEN reagent, 34,800 cpm/pmole
Eosinophils [3]
  stimulation of eosinophil superoxide production (in words): retained full ability to stimulate eosinophil superoxide production
[4]; mean+/−SE, listed as 125I-lactoferrin, read-out: KD, first class of receptors
  Kd: ~47 nM
[4]; mean+/−SE, read-out: KD, first class of receptors
  Kd: 47 nM
[4]; read-out: KD, second class of receptors
  Kd: ~260 nM

B5: immobilized deglycosylated lactoferrin: lactoferrin incubated with peptide N-glycosidase F for 72 hours at 37° C (protein, UniProt P02788 20-710, looked up)
Lactotransferrin: B1 Lactotransferrin
modifications: deglycosylated with PNGase F
notes: lactoferrin incubated with peptide N-glycosidase F for 72 hours at 37° C
Eosinophils [3]
  stimulation of eosinophil superoxide production (in words): stimulated superoxide production to the same extent and in the same concentration-dependent manner as immobilized mock-deglycosylated lactoferrin
